Measured values reported in the supplement of paper PMC10065799, “High-throughput profiling of sequence recognition by tyrosine kinases and SH2 domains using bacterial peptide display” (eLife, 2023).

Columns and labels:
[1] = test system: AncSZ; experiment: phosphorylation enrichment, bacterial display (enrichment ratio); higher = better substrate or ligand; peptides without Tyr show the background
[2] = target: EPHB1 (UniProt P54762); experiment: as above
[3] = target: EPHB2 (UniProt P29323); experiment: as above
[4] = target: FGFR1 (UniProt P11362); experiment: as above
[5] = target: FGFR3 (UniProt P22607); experiment: as above
[6] = test system: Fer (mouse); experiment: as above
[7] = target: Fes (UniProt P07332); experiment: as above
[8] = target: Fyn (UniProt P06241); experiment: as above
[9] = target: Hck (UniProt P08631); experiment: as above
[10] = target: Jak2 (UniProt O60674); experiment: as above
[11] = target: MERTK (UniProt Q12866); experiment: as above
[12] = test system: c-Abl (mouse); experiment: as above
[13] = test system: c-Src; experiment: as above
[14] = target: Grb2 SH2 (UniProt P62993); experiment: SH2 binding enrichment of the phosphorylated peptide, bacterial display (enrichment ratio); higher = better substrate or ligand; peptides without Tyr show the background
[15] = target: SHP2-C SH2; experiment: as above
[16] = target: c-Src SH2; experiment: as above
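Wherever SH2 binding enrichment of the phosphorylated peptide, bacterial display is given: peptide library displayed on the E. coli surface as eCPX fusions, selected cells deep-sequenced, score is each peptide's frequency after selection divided by its frequency in the input.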
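Wherever phosphorylation enrichment, bacterial display is given: 11-residue human phosphosite peptides and single-mutation variants displayed on the E. coli surface, counted by deep sequencing, each peptide's frequency after selection divided by its frequency in the unselected input library; frequency after pTyr selection over input frequency; kinase dosed for 20-30% of maximal phosphorylation in three min.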

Sequence of FGFR3 (P22607 whole entry, looked up): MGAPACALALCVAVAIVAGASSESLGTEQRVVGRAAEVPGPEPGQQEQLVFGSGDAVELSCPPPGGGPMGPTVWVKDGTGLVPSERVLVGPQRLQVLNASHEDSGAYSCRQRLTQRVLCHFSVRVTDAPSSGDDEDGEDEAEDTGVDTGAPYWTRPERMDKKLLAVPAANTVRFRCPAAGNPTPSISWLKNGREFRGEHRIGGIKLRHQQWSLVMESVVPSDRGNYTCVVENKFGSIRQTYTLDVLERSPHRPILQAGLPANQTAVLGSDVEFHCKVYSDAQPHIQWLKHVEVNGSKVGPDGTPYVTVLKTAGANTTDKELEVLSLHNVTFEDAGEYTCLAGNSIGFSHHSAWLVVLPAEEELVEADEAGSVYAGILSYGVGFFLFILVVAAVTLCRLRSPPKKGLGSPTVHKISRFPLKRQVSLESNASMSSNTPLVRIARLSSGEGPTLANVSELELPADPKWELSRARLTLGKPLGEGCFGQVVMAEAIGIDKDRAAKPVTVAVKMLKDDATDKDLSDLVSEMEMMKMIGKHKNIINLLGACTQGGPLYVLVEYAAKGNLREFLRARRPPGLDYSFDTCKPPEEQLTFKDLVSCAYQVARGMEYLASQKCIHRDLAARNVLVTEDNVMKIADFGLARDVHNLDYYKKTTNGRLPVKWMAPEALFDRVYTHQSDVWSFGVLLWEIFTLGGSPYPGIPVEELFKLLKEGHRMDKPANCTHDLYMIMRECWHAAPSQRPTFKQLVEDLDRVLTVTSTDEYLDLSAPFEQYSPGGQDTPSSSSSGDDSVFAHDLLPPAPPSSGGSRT
Sequence of Jak2 (O60674 whole entry, looked up): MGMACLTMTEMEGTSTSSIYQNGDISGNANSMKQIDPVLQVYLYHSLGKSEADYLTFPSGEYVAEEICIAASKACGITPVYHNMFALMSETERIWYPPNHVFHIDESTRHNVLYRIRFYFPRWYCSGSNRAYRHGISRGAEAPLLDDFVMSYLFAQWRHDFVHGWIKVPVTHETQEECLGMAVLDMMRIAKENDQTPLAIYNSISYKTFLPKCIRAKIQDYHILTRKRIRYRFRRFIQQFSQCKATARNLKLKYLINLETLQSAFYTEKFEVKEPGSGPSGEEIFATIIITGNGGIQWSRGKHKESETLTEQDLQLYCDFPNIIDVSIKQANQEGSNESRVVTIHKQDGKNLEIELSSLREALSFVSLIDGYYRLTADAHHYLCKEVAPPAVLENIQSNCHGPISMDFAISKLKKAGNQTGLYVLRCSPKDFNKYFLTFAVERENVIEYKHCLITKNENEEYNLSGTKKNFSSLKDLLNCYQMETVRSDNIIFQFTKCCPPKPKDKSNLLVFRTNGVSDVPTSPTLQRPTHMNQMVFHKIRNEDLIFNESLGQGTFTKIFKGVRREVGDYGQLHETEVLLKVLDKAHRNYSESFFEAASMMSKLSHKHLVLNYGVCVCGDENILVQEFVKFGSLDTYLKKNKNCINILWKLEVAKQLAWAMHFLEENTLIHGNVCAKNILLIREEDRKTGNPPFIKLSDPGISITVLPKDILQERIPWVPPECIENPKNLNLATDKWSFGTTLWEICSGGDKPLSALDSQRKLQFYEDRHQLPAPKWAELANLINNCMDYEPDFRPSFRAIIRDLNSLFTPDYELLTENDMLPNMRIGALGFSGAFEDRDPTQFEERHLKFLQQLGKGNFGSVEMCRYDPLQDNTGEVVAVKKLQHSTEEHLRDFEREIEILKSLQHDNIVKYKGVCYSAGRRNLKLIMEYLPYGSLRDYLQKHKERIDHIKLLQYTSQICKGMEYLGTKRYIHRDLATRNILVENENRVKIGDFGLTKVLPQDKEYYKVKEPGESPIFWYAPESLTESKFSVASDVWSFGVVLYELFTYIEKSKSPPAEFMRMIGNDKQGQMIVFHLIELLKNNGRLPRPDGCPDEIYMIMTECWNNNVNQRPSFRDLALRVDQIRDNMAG
Sequence of FGFR1 (P11362 whole entry, looked up): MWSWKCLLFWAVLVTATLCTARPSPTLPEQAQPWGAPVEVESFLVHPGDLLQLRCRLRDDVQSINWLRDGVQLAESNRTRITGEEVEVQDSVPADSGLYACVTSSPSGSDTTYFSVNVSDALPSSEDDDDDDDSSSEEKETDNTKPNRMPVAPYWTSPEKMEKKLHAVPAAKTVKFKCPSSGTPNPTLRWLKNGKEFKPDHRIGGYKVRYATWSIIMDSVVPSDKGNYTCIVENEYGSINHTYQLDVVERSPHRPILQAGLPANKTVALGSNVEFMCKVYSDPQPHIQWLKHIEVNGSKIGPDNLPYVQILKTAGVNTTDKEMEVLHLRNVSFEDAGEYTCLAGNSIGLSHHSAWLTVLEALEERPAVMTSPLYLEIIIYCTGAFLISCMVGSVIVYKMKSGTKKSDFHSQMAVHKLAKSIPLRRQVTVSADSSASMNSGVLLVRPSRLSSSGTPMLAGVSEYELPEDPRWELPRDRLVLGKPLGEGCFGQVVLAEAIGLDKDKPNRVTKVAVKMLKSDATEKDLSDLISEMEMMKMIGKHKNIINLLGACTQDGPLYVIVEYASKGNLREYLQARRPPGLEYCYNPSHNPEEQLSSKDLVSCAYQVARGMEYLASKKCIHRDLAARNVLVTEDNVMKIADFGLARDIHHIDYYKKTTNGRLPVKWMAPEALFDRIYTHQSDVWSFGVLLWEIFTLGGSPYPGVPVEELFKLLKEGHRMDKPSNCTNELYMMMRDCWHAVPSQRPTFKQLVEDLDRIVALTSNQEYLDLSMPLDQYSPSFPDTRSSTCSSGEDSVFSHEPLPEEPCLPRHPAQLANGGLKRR
Sequence of Fes (P07332 whole entry, looked up): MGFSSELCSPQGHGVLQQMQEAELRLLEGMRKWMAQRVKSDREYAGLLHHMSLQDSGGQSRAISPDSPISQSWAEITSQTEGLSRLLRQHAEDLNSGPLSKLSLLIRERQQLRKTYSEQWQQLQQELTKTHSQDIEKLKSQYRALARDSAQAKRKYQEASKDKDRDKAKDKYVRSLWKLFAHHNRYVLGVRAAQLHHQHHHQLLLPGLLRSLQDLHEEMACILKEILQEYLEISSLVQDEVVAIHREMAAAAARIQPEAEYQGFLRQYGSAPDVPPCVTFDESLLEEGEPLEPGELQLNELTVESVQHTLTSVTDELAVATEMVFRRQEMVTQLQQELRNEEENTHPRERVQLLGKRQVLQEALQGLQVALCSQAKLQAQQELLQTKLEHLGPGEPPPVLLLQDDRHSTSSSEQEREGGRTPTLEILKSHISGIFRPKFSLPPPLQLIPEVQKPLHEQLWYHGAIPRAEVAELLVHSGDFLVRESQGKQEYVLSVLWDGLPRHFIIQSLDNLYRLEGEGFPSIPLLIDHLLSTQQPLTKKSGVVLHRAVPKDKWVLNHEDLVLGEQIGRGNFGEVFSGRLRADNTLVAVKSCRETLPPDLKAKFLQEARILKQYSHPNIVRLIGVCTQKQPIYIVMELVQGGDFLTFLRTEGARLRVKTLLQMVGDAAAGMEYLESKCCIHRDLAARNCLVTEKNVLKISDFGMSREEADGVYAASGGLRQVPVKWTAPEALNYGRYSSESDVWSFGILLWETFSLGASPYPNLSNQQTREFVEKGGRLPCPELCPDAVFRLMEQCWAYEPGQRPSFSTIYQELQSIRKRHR
Sequence of EPHB2 (P29323 whole entry, looked up): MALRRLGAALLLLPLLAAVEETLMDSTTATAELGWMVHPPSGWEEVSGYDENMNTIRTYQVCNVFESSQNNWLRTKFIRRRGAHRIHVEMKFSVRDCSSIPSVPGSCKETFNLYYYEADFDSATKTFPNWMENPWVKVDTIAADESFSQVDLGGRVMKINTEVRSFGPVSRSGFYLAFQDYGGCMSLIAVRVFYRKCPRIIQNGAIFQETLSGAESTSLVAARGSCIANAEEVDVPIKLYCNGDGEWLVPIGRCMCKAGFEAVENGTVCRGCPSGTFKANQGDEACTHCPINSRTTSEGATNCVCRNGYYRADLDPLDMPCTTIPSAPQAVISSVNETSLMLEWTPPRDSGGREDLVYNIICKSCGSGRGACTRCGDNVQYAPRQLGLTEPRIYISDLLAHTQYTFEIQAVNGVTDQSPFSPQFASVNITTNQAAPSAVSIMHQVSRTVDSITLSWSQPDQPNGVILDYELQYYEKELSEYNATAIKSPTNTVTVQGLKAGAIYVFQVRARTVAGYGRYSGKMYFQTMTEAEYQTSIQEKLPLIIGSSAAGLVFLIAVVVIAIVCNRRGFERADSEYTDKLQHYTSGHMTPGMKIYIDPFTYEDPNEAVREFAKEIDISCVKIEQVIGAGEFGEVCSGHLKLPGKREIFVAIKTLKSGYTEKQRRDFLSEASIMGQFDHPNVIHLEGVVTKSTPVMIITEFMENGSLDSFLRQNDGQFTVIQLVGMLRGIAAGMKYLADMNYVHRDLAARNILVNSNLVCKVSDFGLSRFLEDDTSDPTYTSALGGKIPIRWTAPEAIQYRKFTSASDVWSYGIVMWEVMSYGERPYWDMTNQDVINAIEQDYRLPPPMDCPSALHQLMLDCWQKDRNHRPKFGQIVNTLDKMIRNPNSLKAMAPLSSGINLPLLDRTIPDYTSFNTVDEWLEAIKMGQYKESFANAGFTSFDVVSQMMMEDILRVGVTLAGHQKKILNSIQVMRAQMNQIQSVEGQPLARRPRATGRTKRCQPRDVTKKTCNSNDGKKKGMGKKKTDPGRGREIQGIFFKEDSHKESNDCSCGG

SH2 binding enrichment [14]	SH2 binding enrichment [15]	SH2 binding enrichment [16]	Sequence	phosphorylation enrichment [1]	phosphorylation enrichment [2]	phosphorylation enrichment [3]	phosphorylation enrichment [4]	phosphorylation enrichment [5]	phosphorylation enrichment [6]	phosphorylation enrichment [7]	phosphorylation enrichment [8]	phosphorylation enrichment [9]	phosphorylation enrichment [10]	phosphorylation enrichment [11]	phosphorylation enrichment [12]	phosphorylation enrichment [13]
0.71	0.655	0.518	RIVTTYIRERE [DNM2_Y463]	1.12	0.477	0.75	0.616	0.682	0.649	1.06	0.811	0.874	0.795	0.758	0.741	0.499
0.873	0.598	0.669	PYVYYYSYLLK [PTEN_Y178_R173P]	1.99	3.56	1.92	6.02	6.37	1.1	1.87	1.88	3.46	4.21	5.9	3.68	3.14
0.94	0.393	0.472	SECCKYKIDNP [OSMR_Y689]	0.642	0.464	0.416	0.756	0.488	0.407	0.786	0.411	0.381	0.658	0.419	0.539	0.46
9.47	0.872	6.88	EYQLPYYNTVP [BMPR1A_Y457_M460T]	4.46	0.966	1.19	7.09	5.15	1.94	1.05	1.42	1.93	5.82	2.31	2.54	5.66
0.984	0.929	0.673	HCFAAYFQQGD [GPI_Y351_R347C]	1.72	1.05	0.906	0.914	1.28	1.08	2.51	0.755	0.748	2.05	1.03	1.98	1.23
0.821	0.941	1.59	ANKNVYEVEPT [MEGF10_Y1075_R1072K]	0.823	0.516	0.492	0.383	0.7	0.36	0.938	4.42	0.798	0.848	1.04	0.6	2.9
0.903	0.827	0.398	KTKIGYSPLHQ [ANK1_Y735_L733I]	0.489	0.326	0.449	0.422	0.384	0.434	0.512	0.408	0.435	0.49	0.466	0.456	0.425
0.885	0.839	0.713	YIATQYSLCPR [LBR_Y166_R169C]	1.23	0.511	0.817	1.73	1.19	0.606	0.907	0.67	0.719	0.873	1.75	0.716	0.725
0.756	1	0.474	ETLLYYGYRRS [POR_Y564_C566Y]	1.21	1.21	1.06	1.3	1.18	0.766	0.806	9.27	14.6	5.24	6.93	9.52	10.7
0.868	0.768	0.459	LPKVSYVKAID [GLRA1_Y307]	0.629	0.402	0.411	0.423	0.433	0.34	0.652	0.391	0.434	0.563	0.542	0.444	0.338
0.811	0.716	0.517	IRRWVYPLTPE [EIF2B5_Y319]	0.934	0.406	0.522	0.451	0.613	0.559	0.943	0.514	0.481	0.732	0.476	0.464	0.437
0.82	0.574	0.485	AEYGLYAAMVR [VSX2_Y222_G223A]	1.65	8.53	9.84	0.639	0.895	5.05	1.4	6.68	7.14	1.16	6.46	3.28	4.7
0.229	0.406	0.303	RLRKFHLGKFL [KLB_Y906_Y906H_YF]	1.06	1.17	1.16	0.417	0.651	0.415	1.13	0.574	0.63	0.698	0.969	0.948	0.792
0.847	0.288	0.539	PSDLLYIPDIQ [ITGA2B_Y845_L847P]	2	1.35	1.1	1.21	1.37	0.494	1.77	0.917	0.921	2	0.953	1.89	0.808
0.761	0.714	0.505	GGQVFHNSEFG [FLT4_Y1333_Y1333H_YF]	0.593	0.4	0.451	0.448	0.572	0.375	0.668	0.424	0.379	0.534	0.395	0.531	0.377
0.71	0.559	0.451	STLEVYSCHPP [IL21R_Y317]	1.33	1.04	1.34	0.698	1.04	0.904	1.56	1.25	1.27	1.38	0.774	1.31	1.65
